According to patent publication US7105647 (WISCONSIN ALUMNI RESEARCH FOUNDATION, dated 2006):

B1: human aryl hydrocarbon receptor (AHR), full length (receptor, UniProt P35869 1-848, looked up)
chain: MNSSSANITYASRKRRKPVQKTVKPIPAEGIKSNPSKRHRDRLNTELDRLASLLPFPQDVINKLDKLSVLRLSVSYLRAKSFFDVALKSSPTERNGGQDNCRAANFREGLNLQEGEFLLQALNGFVLVVTTDALVFYASSTIQDYLGFQQSDVIHQSVYELIHTEDRAEFQRQLHWALNPSQCTESGQGIEEATGLPQTVVCYNPDQIPPENSPLMERCFICRLRCLLDNSSGFLAMNFQGKLKYLHGQKKKGKDGSILPPQLALFAIATPLQPPSILEIRTKNFIFRTKHKLDFTPIGCDAKGRIVLGYTEAELCTRGSGYQFIHAADMLYCAESHIRMIKTGESGMIVFRLLTKNNRWTWVQSNARLLYKNGRPDYIIVTQRPLTDEEGTEHLRKRNTKLPFMFTTGEAVLYEATNPFPAIMDPLPLRTKNGTSGKDSATTSTLSKDSLNPSSLLAAMMQQDESIYLYPASSTSSTAPFENNFFNESMNECRNWQDNTAPMGNDTILKHEQIDQPQDVNSFAGGHPGLFQDSKNSDLYSIMKNLGIDFEDIRHMQNEKFFRNDFSGEVDFRDIDLTDEILTYVQDSLSKSPFIPSDYQQQQSLALNSSCMVQEHLHLEQQQQHHQKQVVVEPQQQLCQKMKHMQVNGMFENWNSNQFVPFNCPQQDPQQYNVFTDLHGISQEFPYKSEMDSMPYTQNFISCNQPVLPQHSKCTELDYPMGSFEPSPYPTTSSLEDFVTCLQLPENQKHGLNPQSAIITPQTCYAGAVSMYQCQPEPQHTHVGQMQYNPVLPGQQAFLNKFQNGVLNETYPAELNNINNTQTTTHLQPLHHPSEARPFPDLTSSGFL
notes: Full length in yeast (PRSAHR) and in the Hsp90 co-IP (huAHR); also called huAHR; Ah receptor

Legend:
[1] = target: T1, AH receptor nuclear translocator (ARNT), full length (human, UniProt P27540 1-789); experiment: functional data, assay not described
T1 construct: Full length: in vitro translated, expressed in yeast (PL574) or transfected; Endogenous ARNT in the Hep3B experiment; also called huARNT; hARNT

Hsp90 = target: T2, Hsp90; experiment: co-IP of 35S-labelled in vitro translated protein with anti-Hsp90 antibody 3G3p90, phosphoimager
T2 construct: Endogenous Hsp90 of the translation lysate
Protocol: Coimmunoprecipitation with Hsp90. Each MOP construct was in vitro translated in the presence of [^35S]-methionine in a TNT coupled transcription/translation system (Promega). Hsp90 immunoprecipitation assays were performed with monoclonal antibody 3G3p90 or a control IgM antibody, TEPC 183 (Sigma) essentially as described. Each immunoprecipitation was subjected to SDS-PAGE, and the resulting gel was dried. The level of radioactivity in each coprecipitated protein band was quantified on a Bio-Rad GS-363 Molecular Imager System. The amount of protein immunoprecipitated with the Hsp90 antibody is presented as a percentage of the amount of murine AHR immunoprecipitated in parallel assays.
4. Interaction of MOPs with Hsp90. In an effort to assess a MOP's ability to interact with Hsp90, we performed coimmunoprecipitation assays with anti Hsp90 antibodies. Given the remarkable stability of the Hsp90 complex with the AHR from the C57BL/6J mouse, we used this receptor species as a reference and compared all interactions relative to it. As additional controls, we immunoprecipitated ARNT and the human AHR as negative and positive controls, respectively. Despite our ability to readily detect huAHR-Hsp90 interactions, we were unable to detect ARNT, MOP2 or MOP5 interactions with Hsp90. In contrast, huAHR, MOP1, MOP3 and MOP4 all immunoprecipitated with HSP90-specific antisera. […]

[2] = target: T1, AH receptor nuclear translocator …; experiment: yeast interaction trap (mating), X-Gal overlay
Protocol: Interaction Screen Against Known bHLH-PAS Proteins. LexAbHLH-PAS fusion proteins ("baits") of HIF1α, HIF2α, MOP3, MOP4, AHR, ARNT, and CLOCK were transformed into the L40 strain of yeast. The full-length ("fish") MOP3 and ARNT plasmids were transformed into the AMR70 yeast strain, and these transformants were plated onto yeast complete media plates (Kaiser et al., 1994, in *Methods in Yeast Genetics*, Cold Spring Harbor Press, Plainview, N.Y.). The L40 yeast harboring the bait constructs were replica plated onto these yeast complete media plates and mated for 8 hr at 30° C. The plates were then replica plated onto selective media and grown for an additional day at 30° C. 5-Bromo-4-chloro-3-indolyl […]-galactoside (X-Gal) overlay assays were performed to determine the relative expression of the lacZ reporter gene (Bohen and Yamamoto, 1993, PNAS 90: 11424–11428). Western blot analysis, using LexA-specific sera, was performed on extract from each transformant to confirm expression of the fusion protein (see Example 1).

[3] = target: B1; experiment: co-IP of 35S-labelled in vitro translated protein with AHR-specific antiserum
Protocol: (§1) 1. Interaction of MOPs with the AHR and ARNT in vitro; Coimmunoprecipitation experiments. We first performed coimmunoprecipitation experiments to determine if MOPs 1–4 had the capacity to interact with either the AHR or ARNT in vitro. These proteins were expressed in a reticulocyte lysate system in the presence of ^35S-methionine and then incubated in the presence or absence of the AHR or ARNT. Complex formation was assayed by coimmunoprecipitation with AHR or ARNT specific antisera, followed by quantitation of coimmunoprecipitated ^35S-labeled MOP by phosphoimage analysis. Interactions were identified by a reproducible increase in an AHR or ARNT-dependent precipitation of MOP protein. Because we have observed considerable variability in this coimmunoprecipitation assay, each experiment was performed at least three times.

[4] = target: T1, AH receptor nuclear translocator …; experiment: co-IP of 35S-labelled in vitro translated protein with ARNT-specific antiserum
Protocol: as §1

T1 sequence (P27540 whole entry): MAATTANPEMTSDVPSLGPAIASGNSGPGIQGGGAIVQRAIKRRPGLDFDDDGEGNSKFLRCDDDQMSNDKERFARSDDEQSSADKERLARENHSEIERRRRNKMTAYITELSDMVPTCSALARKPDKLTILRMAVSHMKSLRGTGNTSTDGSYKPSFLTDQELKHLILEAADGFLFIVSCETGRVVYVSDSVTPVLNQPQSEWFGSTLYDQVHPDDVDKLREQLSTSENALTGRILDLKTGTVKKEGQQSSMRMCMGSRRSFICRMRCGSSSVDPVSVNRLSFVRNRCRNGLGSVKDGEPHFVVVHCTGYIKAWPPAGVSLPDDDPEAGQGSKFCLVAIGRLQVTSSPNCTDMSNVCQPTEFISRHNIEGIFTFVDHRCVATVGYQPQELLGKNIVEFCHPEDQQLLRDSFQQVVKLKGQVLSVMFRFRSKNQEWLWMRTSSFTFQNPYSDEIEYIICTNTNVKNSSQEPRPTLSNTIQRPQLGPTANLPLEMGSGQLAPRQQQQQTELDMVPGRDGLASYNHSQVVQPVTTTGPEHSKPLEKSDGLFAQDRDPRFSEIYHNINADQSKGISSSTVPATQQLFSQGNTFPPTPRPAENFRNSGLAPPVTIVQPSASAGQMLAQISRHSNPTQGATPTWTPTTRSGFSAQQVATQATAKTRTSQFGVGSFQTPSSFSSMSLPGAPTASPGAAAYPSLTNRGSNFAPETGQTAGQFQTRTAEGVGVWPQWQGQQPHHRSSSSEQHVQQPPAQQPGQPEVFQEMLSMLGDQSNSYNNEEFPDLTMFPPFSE

| percent of the amount of murine AHR immunoprecipitated with the Hsp90 antibody (Hsp90) [%] | binding result [2] | Binder | further results |
| --- | --- | --- | --- |
| – | – | MOP6 (other, Mentioned only in the general description) MAPTKPSFQQDPSRRERLQALRKEKSRDAARSRRGKENFEFYELAKLLPLPAAITSQLDKASIIRLTISYLKMRDFANQGDPPWNLRMEGPPPNTSVKGAQRRRSPSALAIEVFEAHLGSHILQSLDGFVFALNQEGKFLYISETVSIYLGLSQVELTGSSVFDYVHPGDHVEMAEQLGMKLPPGRGLLSQGTAEDGASSASSSSQSETPEPVESTSPSLLTTDNTLERSFFIRMKSTLTKRGVHIKSSGYKVIHITGRLRLRVSLSHGRTVPSQIMGLVVVAHALPPPTINEVRIDCHMFVTRVNMDLNIIYCENRISDYMDLTPVDIVGKRCYHFIHAEDVEGIRHSHLDLLNKGQCVTKYYRWMQKNGGYIWIQSSATIAINAKNANEKNIIWVNYLLSNPEYKDTPMDIAQLPHLPEKTSESSETSDSESDSKDTSGITEDNENSKSDEKGNQSENSEDPEPDRKKSGNACDNDMNCNDDGHSSSNPDSRDSDDSFEHSDFENPKAGEDGFGALGAMQIKVERYVESESDLRLQNCESLTSDSAKDSDSAGEAGAQASSKHQKRKKRRKRQKGGSASRRRLSSASSPGGLDAGLVEPPRLLSSPNSASVLKIKTEISEPINFDNDSSIWNYPPNREISRNESPYSMTKPPSSEHFPSPQGGGGGGGGGGGLHVAIPDSVLTPPGADG | binding result [1]: binds |
| 53 | – | B1 | – |
| – | no binding | LexA control (other, UniProt P0A7C2 1-202, looked up) MKALTARQQEVFDLIRDHISQTGMPPTRAEIAQRLGFRSPNAAEEHLKALARKGVIEIVSGASRGIRLLQEEEEGLPLVGRVAAGEPLLAQQHIEGHYQVDPSLFKPNADFLLRVSGMSMKDIGIMDGDLLAVHKTQDVRNGQVVVARIDDEVTVKRLKKQGNKVELLPENSEFKPIVVDLRQQSFTIEGLAVGVIRNGDWL | – |
| – | no binding | LexAbHLH-PAS fusion of CLOCK (PL828) (other, UniProt P0A7C2 1-202, looked up, range 1-202;domain: bHLH-PAS domains; also called LexA fusion of CLOCK) MKALTARQQEVFDLIRDHISQTGMPPTRAEIAQRLGFRSPNAAEEHLKALARKGVIEIVSGASRGIRLLQEEEEGLPLVGRVAAGEPLLAQQHIEGHYQVDPSLFKPNADFLLRVSGMSMKDIGIMDGDLLAVHKTQDVRNGQVVVARIDDEVTVKRLKKQGNKVELLPENSEFKPIVVDLRQQSFTIEGLAVGVIRNGDWLMLFTVSCSKMSSIVDRDDSSIFDGLVEEDDKDKAKRVSRNKSEKKRRDQFNVLIKELGSMLPGNARKMDKSTVLQKSIDFLRKHKEITAQSDASEIRQDWKPTFLSNEEFTQLMLEALDGFFLAIMTDGSIIYVSESVTSLLEHLPSDLVDQSIFNFIPEGEHSEVYKILSTHLLESDSLTPEYLKSKNQLEFCCHMLRGTIDPKEPSTYEYVKFIGNFKSLNSVSSSAHNGFEGTIQRTHRPSYEDRVCFVATVRLATPQFIKEMCTVEEPNEEFTSRHSLEWKFLFLDHRAPPIIGYLPFEVLGTSGYDYYHVDDLENLAKCHEHLMQYGKGKSCYYRFLTKGQQWIWLQTHYYITYHQWNSRPEFIVCTHTVVSYAEVRAERRRELG | – |
| 31 | – | MOP4 (other, also called huMOP4) MDEDEKDRAKRASRNKSEKKRRDQFNVLIKELSSMLPGNTRKMDKTTVLEEVIGFLQKHNEVSAQTEICDIQQDWKPSFLSNEEFTQLMLEALDGFIIAVTTDGSIIYVSDSITPLLGHLPSDVMDQNLLNFLPEQEHSEVYKILSSHMLVTDSPSPEYLKSDGDLEFYCHLLRGSLNPKEFPTYEYIKFVGNFRSYNNVPSPSCNGFDNTLSRPCRVPLGKEVCFIATVRLATPQFLKEMCIVDEPLEEFTSRHSLEWKFLFLDHRAPPIIGYLPFEVLGTSGYDYYHIDDLELLARCHQHLMQFGKGKSCCYRFLTKGQQWIWLQTHYYITYHQWNSKPEFIVCTHSVVSYADVRVERRQELALEDPPSEALHSSALKDKGSSLEPRQHFNALDVGASGLNTSHSPSASSRSSHKSSHTAMSEPTSTPTKLMAEASTPALPRSATLPQELPVPGLSQAATMPAPLPSPSSCDLTQQLLPQTVLQSTPAPMAQFSAQFSMFQTIKDQLEQRTRILQANIRWQQEELHKIQEQLCLVQDSNVQMFLQQPAVSLSFSSTQRPEAQQQLQQRSAAVTQPQLGAGPQLPGQISSAQVTSQHLLRESSVISTQGPKPMRSSQLMQSSGRS | binding result [3]: no binding; binding result [4]: no binding |
